Reference: US20240027467A1 (VIB VZW, published 2024)

Columns and labels:
[1] = target: T1, recombinant human coagulation factor IXa (human, UniProt P00740 134-191; P00740 227-461); experiment: BLI
T1 construct: range 134-191;range 227-461; Fluorescently labelled with Dylight-647 for the NANEX runs; also called FIXa

[2] = target: mCherry; experiment: BLI
Protocol: (§1) Streptavidin-coated Octet® biosensors were used to capture biotinylated Nanobodies (1 μg/mL). […] All assays were performed in Hepes 25 mM pH7.5, NaCl 150 mM supplemented with BSA 0.1% and Tween²⁰ 0.005% at room temperature.

[3] = target: mCherry; experiment: BLI (OctetRed), biotinylated Nb on streptavidin sensor, mCherry 8.23-222 nM
Protocol: as §1

[4] = target: T2, FmIH_lectin_mCherry_his (CA17337); experiment: NANEX column: lysate with FmlH_lectin_mCherry_his on immobilised CA16964; A280 and SDS-PAGE [D00043 FIG. 39B]
T2 construct: also called mCherry-fusion protein

[5] = target: T3, GST (Glutathione S-transferase) (Schistosoma japonicum (Blood fluke), UniProt P08515 1-218 = GST); experiment: BLI
Protocol: as §1

[6] = target: T3, GST (Glutathione S-transferase); experiment: BLI (OctetRed), biotinylated Nb on streptavidin sensor, GST 63-1667 nM
Protocol: as §1

[7] = target: T4, SMT3 (YDR510W), ubiquitin-like protein SMT3 (yeast); experiment: BLI
T4 construct: also called yeast SUMO protein
T4 chain: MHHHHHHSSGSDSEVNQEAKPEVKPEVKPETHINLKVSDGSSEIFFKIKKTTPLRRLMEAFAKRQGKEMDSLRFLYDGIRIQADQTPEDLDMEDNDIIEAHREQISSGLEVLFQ
Protocol: (§2) Streptavidin-coated Octet® biosensors were used to capture biotinylated Nanobodies (1 μg/mL). Binding and dissociation isotherms at several SMT3 concentrations (10 nM to 500 nM range) were analyzed on an OctetRed (molecular devices). All assays were performed in Hepes 25 mM pH7.5, NaCl 150 mM supplemented with BSA 0.1% and Tween²⁰ 0.005% at room temperature.

[8] = target: T4, SMT3 (YDR510W), ubiquitin-like protein …; experiment: BLI (OctetRed), biotinylated Nb on streptavidin sensor, SMT3 10-500 nM
Protocol: as §2

[9] = target: T5, GFP protein (Aequorea victoria (Water jellyfish) …, UniProt P42212 1-238 = GFP); experiment: BLI
T5 construct: Purified GFP used as BLI analyte, in crystals and in NANEX; also called Green fluorescent protein
Protocol: (§3) Streptavidin-coated Octet® biosensors were used to capture biotinylated Nanobodies (1 μg/mL). Binding and dissociation isotherms at several GFP concentrations (1 nM to 5 μM range) were analyzed on an OctetRed (molecular devices). All assays were performed in Hepes 25 mM pH7.5, NaCl 150 mM supplemented with BSA 0.1% and Tween²⁰ 0.005% at room temperature.

[10] = target: T5, GFP protein; experiment: comparison of affinities told with the NANEX result
[11] = target: T5, GFP protein; experiment: BLI (OctetRed), biotinylated Nb on streptavidin sensor, GFP as analyte
Protocol: as §3

[12] = target: T1, recombinant human coagulation factor IXa; experiment: tandem NANEX: displacement of factor IXa from immobilised CA10502 by 1 mL of 2.5 mg/mL (24 µM) MegaBody CA14208; A280/A650 and SDS-PAGE
[13] = target: T5, GFP protein; experiment: BLI; remark: listed apart in the source
Protocol: (§4) Streptavidin-coated Octet® biosensors were used to capture biotinylated Nanobodies (1 μg/mL). Binding and dissociation isotherms at several GFP concentrations (8 nM to 500 nM range) were analyzed on an OctetRed (molecular devices). All assays were performed in Hepes 25 mM pH7.5, NaCl 150 mM supplemented with BSA 0.1% and Tween²⁰ 0.005% at room temperature.

[14] = target: T5, GFP protein; experiment: BLI (OctetRed), biotinylated Nb on streptavidin sensor, GFP 8-500 nM
Protocol: as §4

T1 sequence (P00740 134-191 limits assumed, form in doubt, chain 1 of 2): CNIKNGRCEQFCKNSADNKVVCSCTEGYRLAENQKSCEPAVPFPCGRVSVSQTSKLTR
T1 sequence (P00740 227-461 limits assumed, form in doubt, chain 2 of 2): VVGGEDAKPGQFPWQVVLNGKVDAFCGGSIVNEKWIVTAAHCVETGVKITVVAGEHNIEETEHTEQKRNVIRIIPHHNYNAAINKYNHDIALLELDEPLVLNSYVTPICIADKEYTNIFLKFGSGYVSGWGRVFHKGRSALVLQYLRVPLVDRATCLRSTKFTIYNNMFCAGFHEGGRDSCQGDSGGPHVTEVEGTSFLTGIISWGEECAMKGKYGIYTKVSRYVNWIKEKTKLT

B1: CA10304 FIXa-specific Nb (C-term. 6xHis+EPEA) (VHH)
VHH: QVQLVESGGGLVQAGGSLKLSCAASERTFSGTVMGWFRQPPGKEREFVGDISWSGSITDYADSVKGRFTISRDNAKNTMYLQMDSLKPEDTAVYYCAARVGGYSYIMSRSPADFGSWGQGTQVTVSS
notes: also called stripper1
Question: B1 was tested. Which Kd [1] did it give?
Answer: 46 nM

Question: And the koff [1]?
Answer: 0.0035 s⁻¹

Question: And the kon [1]?
Answer: 88000 M⁻¹ s⁻¹

B2: CA16964 mCherry Nanobody trapper (including C-terminal 6xHis+EPEA tag) (VHH)
VHH: QVQLVESGGGLVQAGGSLRLSCAASGRDFSFDGMGWFRQAPGKEREFVAAISWSGLRIGYSDSVKGRFTISRDNAETTVHLQMNSLKPEDTAVYYCATGSHATTKAQLYDYEYWGQGTQVTVSS
modifications: biotinylated for BLI
notes: also called Nb CA16964
Question: With B2 as the binder, how does the “Half time ratio (relative to CA17302)” value [2] read?
Answer: 4.27 fold

Question: What about the “KD ratio (relative to CA17302)” value [2] of the same binder?
Answer: 3.86 fold

Question: What about the Kd [3] of the same binder?
Answer: 6.53 nM

Question: And the koff [3]?
Answer: 0.00436 s⁻¹

Question: And the kon [3]?
Answer: 694000 M⁻¹ s⁻¹

Question: Does B2 bind [4]?
Answer: binds

B3: CA16239 GST Nanobody stripper (including C-terminal 6xHis+EPEA tag) (VHH)
VHH: QVQLVESGGGLVQAGGSLRLSCAASERTFSTYNMAWFRQAPGKEREFVAVISWNGGTTNSADSVKGRFTISRDNAKNTVYLQMNSLKPEDTAVYYCAARRVPYLSGTRYYTGEVDYDTWGQGTQVTVSS
modifications: biotinylated for BLI
Question: With B3 as the binder, how does the “Half time ratio (relative to wt)” value [5] read?
Answer: 1 fold

Question: What about the “KD ratio (relative to wt)” value [5] of the same binder?
Answer: 1 fold

Question: And the Kd [6]?
Answer: 4.86 nM

Question: What about the koff [6] of the same binder?
Answer: 0.00309 s⁻¹

Question: What about the kon [6] of the same binder?
Answer: 720000 M⁻¹ s⁻¹

B4: CA16240 GST Nanobody trapper (Y109A) (including C-terminal 6xHis+EPEA tag) (VHH)
VHH: QVQLVESGGGLVQAGGSLRLSCAASERTFSTYNMAWFRQAPGKEREFVAVISWNGGTTNSADSVKGRFTISRDNAKNTVYLQMNSLKPEDTAVYYCAARRVPYLSGTRAYTGEVDYDTWGQGTQVTVSS
modifications: biotinylated for BLI
notes: Y109A mutant of CA16239
Question: Which “Half time ratio (relative to wt CA16239)” value [5] does the source give for B4 here?
Answer: 84 fold

Question: And the “KD ratio (relative to wt CA16239)” value [5]?
Answer: 136 fold

Question: What about the Kd [6] of the same binder?
Answer: 659 nM

Question: And the koff [6]?
Answer: 0.251 s⁻¹

Question: What about the kon [6] of the same binder?
Answer: 512000 M⁻¹ s⁻¹

B5: CA15839 SMT3 Nanobody stripper (including C-terminal 6xHis+EPEA tag) (VHH)
VHH: QVQLVESGGGSAQTGGSLTLSCTASGSIVSMNSMGWFRRAPWKGREWLGDIGRDGRTSYASSVVGRFHISRDEAKNTVYLQMTRLKPEDAAMYYCAAVPFGDDDVGEWEYWGQGTQVTVSS
modifications: biotinylated for BLI
Question: With B5 as the binder, how does the “Half time ratio (relative to wt)” value [7] read?
Answer: 1 fold

Question: What about the “KD ratio (relative to wt)” value [7] of the same binder?
Answer: 1 fold

Question: What about the Kd [8] of the same binder?
Answer: 6.67 nM

Question: And the koff [8]?
Answer: 0.00212 s⁻¹

Question: And the kon [8]?
Answer: 318000 M⁻¹ s⁻¹

B6: CA16687 SMT3 Nanobody trapper (D50A) (including C-terminal 6xHis+EPEA tag) (VHH)
VHH: QVQLVESGGGSAQTGGSLTLSCTASGSIVSMNSMGWFRRAPWKGREWLGAIGRDGRTSYASSVVGRFHISRDEAKNTVYLQMTRLKPEDAAMYYCAAVPFGDDDVGEWEYWGQGTQVTVSS
modifications: biotinylated for BLI
Question: With B6 as the binder, how does the “Half time ratio (relative to wt CA15839)” value [7] read?
Answer: 3.75 fold

Question: And the “KD ratio (relative to wt CA15839)” value [7]?
Answer: 4.34 fold

Question: What about the Kd [8] of the same binder?
Answer: 29 nM

Question: What about the koff [8] of the same binder?
Answer: 0.00797 s⁻¹

Question: And the kon [8]?
Answer: 387000 M⁻¹ s⁻¹

B7: CA10309 FIXa-specific Nb (Stripper2; C-term. 6xHis+EPEA) (VHH)
VHH: QVQLVESGGGLVQAGGSLRLSCATSGIGFSIYSMGWYRQAPGKERELVASIAGNEDKDYVESVKGRFTISRDYAKNTLYLEMSGLKFEDTAMYYCAAGLRRGVSLTPYYWGQGTQVTVSS
Question: Which Kd [1] does the source give for B7 here?
Answer: 21 nM

Question: And the koff [1]?
Answer: 0.00073 s⁻¹

Question: What about the kon [1] of the same binder?
Answer: 62000 M⁻¹ s⁻¹

B8: CA11138 FIXa-specific Nb (C-term. 6xHis+EPEA) (VHH)
VHH: QVQLVESGGGLVQAGGSLRLSCAASERTASNYVMGWFRQAPGKEREFVAFISRTGGSTYYADSVKGRFTVSRDGAKNTVYLQMNTMKPEDTAVYYCAASLYIRNYYEGTNYAYWGQGTQVTVSS
notes: also called trapper1
Question: Which results are given for B8?
Answer: Kd [1]: 141 nM; koff [1]: 0.0042 s⁻¹; kon [1]: 34000 M⁻¹ s⁻¹

B9: CA15818 GFP-NbF103A (C-term. 6xHis + EPEA) (VHH)
VHH: QVQLVESGGGLVQAGGSLRLSCAASGRTFSTAAMGWFRQAPGKERDFVAGIYWTVGSTYYADSAKGRFTISRDNAKNTVYLQMDSLKPEDTAVYYCAARRRGATLAPTRANEYDYWGQGTQVTVSS
modifications: biotinylated for BLI
notes: F103A mutant of CA12760; also called Nb CA15818
Question: Which results are given for B9?
Answer: Half-time ratio (relative to the wt Nb CA12760) [9]: 9 fold; KD ratio (relative to the wt Nb CA12760) [9]: 30 fold; affinity, fold higher than the trapper CA15816 [10]: 2 fold; Kd [11]: 1.5 nM; koff [11]: 0.00029 s⁻¹

B10: CA15861 GFP-NbT54A/V55A/F103A (C-term. 6xHis + EPEA) (VHH)
VHH: QVQLVESGGGLVQAGGSLRLSCAASGRTFSTAAMGWFRQAPGKERDFVAGIYWAAGSTYYADSAKGRFTISRDNAKNTVYLQMDSLKPEDTAVYYCAARRRGATLAPTRANEYDYWGQGTQVTVSS
modifications: biotinylated for BLI
notes: T54A/V55A/F103A mutant of CA12760; also called Nb CA15861
Question: For B10, which “Half-time ratio (relative to the wt Nb CA12760)” value [9] is on record?
Answer: 1400 fold

Question: What about the “KD ratio (relative to the wt Nb CA12760)” value [9] of the same binder?
Answer: 2000 fold

Question: What about the “affinity, fold lower than the trapper CA15816” value [10] of the same binder?
Answer: ~100 fold

Question: And the Kd [11]?
Answer: 111 nM

Question: What about the koff [11] of the same binder?
Answer: 0.0458 s⁻¹

B11: CA14208 FIXa-specific MegaBody (Stripper2; C-term. 6xHis+EPEA) (other)
chain: QVQLVESGGGLVYKEETQSGLNNYARVVEKGQYDSLEIPAQVAASWESGRDDAAVFGFIDKEQLDKYVANGGKRSDWTVKFAENRSQDGTLLGYSLLQESVDQASYMYSDNHYLAEMATILGKPEEAKRYRQLAQQLADYINTCMFDPTTQFYYDVRIEDKPLANGCAGKPIVERGKGPEGWSPLFNGAATQANADAVVKVMLDPKEFNTFVPLGTAALTNPAFGADIYWRGRVWVDQFWFGLKGMERYGYRDDALKLADTFFRHAKGLTADGPIQENYNPLTGAQQGAPNFSWSAAHLYMLYNDFFRKQASGGGSGGGGSGGGGSGNADNYKNVINRTGAPQYMKDYDYDDHQRFNPFFDLGAWHGHLLPDGPNTMGGFPGVALLTEEYINFMASNFDRLTVWQDGKKVDFTLEAYSIPGALVQKLTAKDVQVEMTLRFATPRTSLLETKITSNKPLDLVWDGELLEKLEAKEGKPLSDKTIAGEYPDYQRKISATRDGLKVTFGKVRATWDLLTSGESEYQVHKSLPVQTEINGNRFTSKAHINGSTTLYTTYSHLLTAQEVSKEQMQIRDILARPAFYLTASQQRWEEYLKKGLTNPDATPEQTRVAVKAIETLNGNWRSPGGAVKFNTVTPSVTGRWFSGNQTWPWDTWKQAFAMAHFNPDIAKENIRAVFSWQIQPGDSVRPQDVGFVPDLIAWNLSPERGGDGGNWNERNTKPSLAAWSVMEVYNVTQDKTWVAEMYPKLVAYHDWWLRNRDHNGNGVPEYGATRDKAHNTESGEMLFTVKKDSLRLSCATSGIGFSIYSMGWYRQAPGKERELVASIAGNEDKDYVESVKGRFTISRDYAKNTLYLEMSGLKFEDTAMYYCAAGLRRGVSLTPYYWGQGTQVTVSSHHHHHHEPEA
notes: Functionalized Nanobody derived from CA10309; also called MegaBody MbCA10309^YgjK; MbNbFIXa^cHopQ
Question: Does B11 bind [12]?
Answer: binds

B12: CA16047 second GFP Nanobody stripper (including C-terminal 6xHis+EPEA tag) (VHH)
VHH: QVQLQESGGGLVQAGGSLRLSCAASGFTFDGYAIGWFRQAPGKEREGVSCISSSDGSTYYADSVKGRFTISSDNAKNTVYLQMNSLKPEDTAVYYCVAAWSPSTGCGSYYVQRPPGYDYWGQGTQVTVSS
modifications: biotinylated for BLI
notes: also called Nb CA16047
Question: B12 was tested. Which “Half time ratio (relative to wt)” value [13] did it give?
Answer: 1 fold

Question: And the “KD ratio (relative to wt)” value [13]?
Answer: 1 fold

Question: And the Kd [14]?
Answer: 6.15 nM

Question: And the koff [14]?
Answer: 0.00098 s⁻¹

Question: And the kon [14]?
Answer: 234000 M⁻¹ s⁻¹

B13: CA16695 second GFP Nanobody trapper (Y119F) (including C-terminal 6xHis+EPEA tag) (VHH)
VHH: QVQLQESGGGLVQAGGSLRLSCAASGFTFDGYAIGWFRQAPGKEREGVSCISSSDGSTYYADSVKGRFTISSDNAKNTVYLQMNSLKPEDTAVYYCVAAWSPSTGCGSYYVQRPPGYDFWGQGTQVTVSS
modifications: biotinylated for BLI
notes: Y119F mutant of CA16047; also called Nb CA16695
Question: How did the “Half time ratio (relative to wt CA16047)” value [13] turn out when B13 was run?
Answer: 1.78 fold

Question: And the “KD ratio (relative to wt CA16047)” value [13]?
Answer: 1.37 fold

Question: And the Kd [14]?
Answer: 8.53 nM

Question: What about the koff [14] of the same binder?
Answer: 0.00167 s⁻¹

Question: And the kon [14]?
Answer: 200000 M⁻¹ s⁻¹

B14: CA10502 FIXa-specific Nb (Trapper2; C-term. 6xHis+EPEA) (VHH)
VHH: QVQLQESGGGLVQAGGSLRLSCAASGRTSRVYGVGWFRQAPGKERELVASISTSGSVTNVADSVKGRFTISRDNAKTTVYLQMNSLKPEDTALYYCAADPHGRPYGWGQGTQVTVSS
Question: For B14, which Kd [1] is on record?
Answer: 74 nM

Question: What about the koff [1] of the same binder?
Answer: 0.004 s⁻¹

Question: What about the kon [1] of the same binder?
Answer: 70000 M⁻¹ s⁻¹
